{"source": "patent US20250282851A1", "binders": {"B1": {"name": "monoclonal antibody A38 (antibody, V domains shown)", "VH": "VQLVQELGPGLVKPSETLSLTCAVSGYSISSPYSWGWIRQPPGKGLEWIGGVYSSGEIRHLDPSLKSRVTLSLDTSKNQFSLKLNSVTAADTAVYFCASANGGVAQDAFDFWGQGLRVTVSS", "VL": "QPVLTQPPSLSAPPGASARLPCTLSSDLSVTSLNIYWYQQKSGSAPRLFLYYYSDSDKQLGPGVPSRVSGSKETSSNTALLFISGLQPEDEADYYCQVYDSSAYVLFGGGTRLTVLG"}}, "key": {"[1]": {"target": "Gn protein of Rift Valley fever virus (Rift Valley fever virus)"}, "[2]": {"target": "purified truncated Gn protein of Rift Valley fever virus (Rift Valley fever virus)"}, "[3]": {"target": "purified truncated Gn protein of Rift Valley fever virus (Rift Valley fever virus)", "assay": "ELISA, truncated Gn coated at 2 ug/mL, 50 uL 293T expression supernatant"}}}
{"binder": "B1", "values": [{"measurement": "Kd", "setting": "[1]", "value": 0.972, "unit": "nM"}, {"measurement": "koff", "setting": "[1]", "value": 0.00013, "unit": "s⁻¹"}, {"measurement": "kon", "setting": "[1]", "value": 133000, "unit": "M⁻¹ s⁻¹"}, {"measurement": "EC50", "setting": "[2]", "value": 4.51, "unit": "ng/mL"}, {"measurement": "OD value (OD450 nm-OD630 nm)", "setting": "[3]", "value": 1.4, "unit": "OD"}]}
